Source: publication PMC10482388, “A novel homeostatic mechanism tunes PI(4,5)P2-dependent signaling at the plasma membrane” (Journal of Cell Science, 2023)

Target: (Gly)5–PIP5K1A (aa 1–546), purified human PIP5K1A (human, UniProt Q99755 1-546)
Test: cell-based or functional assay

(Gly)5–PIP5K1A (aa 1–546), purified human PIP5K1A, sequence (Q99755 other isoform, or with tags, fused parts or gaps): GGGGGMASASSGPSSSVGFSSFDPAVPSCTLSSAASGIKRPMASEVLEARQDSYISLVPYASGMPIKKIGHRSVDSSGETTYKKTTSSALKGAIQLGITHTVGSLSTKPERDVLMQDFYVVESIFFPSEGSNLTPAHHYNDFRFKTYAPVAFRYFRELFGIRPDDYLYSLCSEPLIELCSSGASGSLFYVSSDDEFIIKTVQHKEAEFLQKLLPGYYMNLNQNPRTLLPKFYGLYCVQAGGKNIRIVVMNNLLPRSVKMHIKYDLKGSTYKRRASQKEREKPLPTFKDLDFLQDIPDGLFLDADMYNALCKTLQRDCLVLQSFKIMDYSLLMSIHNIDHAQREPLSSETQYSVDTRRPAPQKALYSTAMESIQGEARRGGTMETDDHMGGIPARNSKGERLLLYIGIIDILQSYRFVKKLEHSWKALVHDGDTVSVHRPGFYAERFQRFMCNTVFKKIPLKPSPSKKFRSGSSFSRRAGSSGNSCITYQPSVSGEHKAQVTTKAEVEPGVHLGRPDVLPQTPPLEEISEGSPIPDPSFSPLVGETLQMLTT

B1: (Gly)5–PIP4K2A (aa 1–406), purified human PIP4K2A (enzyme)
chain: GGGGGMATPGNLGSSVLASKTKTKKKHFVAQKVKLFRASDPLLSVLMWGVNHSINELSHVQIPVMLMPDDFKAYSKIKVDNHLFNKENMPSHFKFKEYCPMVFRNLRERFGIDDQDFQNSLTRSAPLPNDSQARSGARFHTSYDKRYIIKTITSEDVAEMHNILKKYHQYIVECHGITLLPQFLGMYRLNVDGVEIYVIVTRNVFSHRLSVYRKYDLKGSTVAREASDKEKAKELPTLKDNDFINEGQKIYIDDNNKKVFLEKLKKDVEFLAQLKLMDYSLLVGIHDVERAEQEEVECEENDGEEEGESDGTHPVGTPPDSPGNTLNSSPPLAPGEFDPNIDVYGIKCHENSPRKEVYFMAIIDILTHYDAKKKAAHAAKTVKHGAGAEISTVNPEQYSKRFLDFIGHILT
modifications: fluorescently labelled LPETGG peptide (Alexa Fluor 488, Alexa Fluor 647 or Cy5) ligated by sortase onto the N-terminal (Gly)5 motif
**Q.** B1 was tested. Which “kinetics of PI(4,5)P2 production on PI4P-containing supported lipid bilayers, 1 nM PIP5K1A with or without 50 nM PIP4K2A; time to completion of the reaction” value did it give?
**A.** 2 fold (reaction completion time)
